± gives the uncertainty stated by the source.
B1: Intersectin-2, residues 1129 to 1183; numbered along this chain, Q9NZM3 (parent)
chain: VCQVIAMYDYAANNEDELSFSKGQLINVMNKDDPDWWQGEINGVTGLFPSNYVKM
B2: Zinc finger homeobox protein 3, residues 2147 to 2202; numbered along this chain, Q15911 (parent)
chain: RPRTRITDDQLRVLRQYFDINNSPSEEQIKEMADKSGLPQKVIKHWFRNTLFKERQ

Variants of: B1
Experiment: abundance fitness (aPCA) (normalised: wild type 0, dead -1); higher = more abundant; growth selection in yeast, the domain comes from the species named
Conditions: Homo sapiens

Row | Variant | abundance fitness
1 | VCQVIAMYDYAANNEDELSFSKGQLINVMNKDDPQWWQGEINGVTGLFPSNYVKM [D35Q] | -0.099 ± 0.055
2 | VCQVIAMYDYAANNEDELSFSKGQLINVMNKDDPDWWQGEINGVTGLFPSNYPKM [V53P] | -0.905 ± 0.047
3 | VCQVIAMKDYAANNEDELSFSKGQLINVMNKDDPDWWQGEINGVTGLFPSNYVKM [Y8K] | 0.074 ± 0.053
4 | VCQVIAMMDYAANNEDELSFSKGQLINVMNKDDPDWWQGEINGVTGLFPSNYVKM [Y8M] | -0.011 ± 0.05

Variants of: B2
Experiment: as above
Conditions: Homo sapiens

Row | Variant | abundance fitness
5 | RPCTRITDDQLRVLRQYFDINNSPSEEQIKEMADKSGLPQKVIKHWFRNTLFKERQ [R3C] | -0.426 ± 0.13
6 | RPWTRITDDQLRVLRQYFDINNSPSEEQIKEMADKSGLPQKVIKHWFRNTLFKERQ [R3W] | -0.57 ± 0.1
7 | RPFTRITDDQLRVLRQYFDINNSPSEEQIKEMADKSGLPQKVIKHWFRNTLFKERQ [R3F] | -0.275 ± 0.15
8 | RPETRITDDQLRVLRQYFDINNSPSEEQIKEMADKSGLPQKVIKHWFRNTLFKERQ [R3E] | 0.184 ± 0.089
9 | RPYTRITDDQLRVLRQYFDINNSPSEEQIKEMADKSGLPQKVIKHWFRNTLFKERQ [R3Y] | -0.085 ± 0.19
10 | RPHTRITDDQLRVLRQYFDINNSPSEEQIKEMADKSGLPQKVIKHWFRNTLFKERQ [R3H] | 0.172 ± 0.15
11 | RPNTRITDDQLRVLRQYFDINNSPSEEQIKEMADKSGLPQKVIKHWFRNTLFKERQ [R3N] | 0.016 ± 0.17
12 | RPKTRITDDQLRVLRQYFDINNSPSEEQIKEMADKSGLPQKVIKHWFRNTLFKERQ [R3K] | -0.25 ± 0.14
13 | RPVTRITDDQLRVLRQYFDINNSPSEEQIKEMADKSGLPQKVIKHWFRNTLFKERQ [R3V] | 0.006 ± 0.075
14 | RPQTRITDDQLRVLRQYFDINNSPSEEQIKEMADKSGLPQKVIKHWFRNTLFKERQ [R3Q] | -0.062 ± 0.14
15 | RPTTRITDDQLRVLRQYFDINNSPSEEQIKEMADKSGLPQKVIKHWFRNTLFKERQ [R3T] | 0.197 ± 0.12
16 | RPLTRITDDQLRVLRQYFDINNSPSEEQIKEMADKSGLPQKVIKHWFRNTLFKERQ [R3L] | -0.014 ± 0.082
17 | RPPTRITDDQLRVLRQYFDINNSPSEEQIKEMADKSGLPQKVIKHWFRNTLFKERQ [R3P] | -0.108 ± 0.14
18 | RPGTRITDDQLRVLRQYFDINNSPSEEQIKEMADKSGLPQKVIKHWFRNTLFKERQ [R3G] | 0.143 ± 0.066
19 | RPMTRITDDQLRVLRQYFDINNSPSEEQIKEMADKSGLPQKVIKHWFRNTLFKERQ [R3M] | 0.293 ± 0.11
20 | RPDTRITDDQLRVLRQYFDINNSPSEEQIKEMADKSGLPQKVIKHWFRNTLFKERQ [R3D] | 0.215 ± 0.14
21 | RPSTRITDDQLRVLRQYFDINNSPSEEQIKEMADKSGLPQKVIKHWFRNTLFKERQ [R3S] | 0.034 ± 0.087
22 | RPRTRNTDDQLRVLRQYFDINNSPSEEQIKEMADKSGLPQKVIKHWFRNTLFKERQ [I6N] | -0.401 ± 0.14
23 | RPRTRLTDDQLRVLRQYFDINNSPSEEQIKEMADKSGLPQKVIKHWFRNTLFKERQ [I6L] | 0.179 ± 0.076
24 | RPRTRKTDDQLRVLRQYFDINNSPSEEQIKEMADKSGLPQKVIKHWFRNTLFKERQ [I6K] | -0.332 ± 0.11
25 | RPRTRCTDDQLRVLRQYFDINNSPSEEQIKEMADKSGLPQKVIKHWFRNTLFKERQ [I6C] | -0.4 ± 0.12
26 | RPRTRFTDDQLRVLRQYFDINNSPSEEQIKEMADKSGLPQKVIKHWFRNTLFKERQ [I6F] | -0.052 ± 0.12

Row | Variant | abundance fitness
27 | RPRTRETDDQLRVLRQYFDINNSPSEEQIKEMADKSGLPQKVIKHWFRNTLFKERQ [I6E] | -0.408 ± 0.091
28 | RPRTRDTDDQLRVLRQYFDINNSPSEEQIKEMADKSGLPQKVIKHWFRNTLFKERQ [I6D] | -0.484 ± 0.12
29 | RPRTRHTDDQLRVLRQYFDINNSPSEEQIKEMADKSGLPQKVIKHWFRNTLFKERQ [I6H] | -0.241 ± 0.14
30 | RPRTRGTDDQLRVLRQYFDINNSPSEEQIKEMADKSGLPQKVIKHWFRNTLFKERQ [I6G] | -0.48 ± 0.08
31 | RSRTRITDDQLRVLRQYFDINNSPSEEQIKEMADKSGLPQKVIKHWFRNTLFKERQ [P2S] | 0.102 ± 0.092
32 | RWRTRITDDQLRVLRQYFDINNSPSEEQIKEMADKSGLPQKVIKHWFRNTLFKERQ [P2W] | -0.679 ± 0.11
33 | RCRTRITDDQLRVLRQYFDINNSPSEEQIKEMADKSGLPQKVIKHWFRNTLFKERQ [P2C] | -0.608 ± 0.14
34 | RMRTRITDDQLRVLRQYFDINNSPSEEQIKEMADKSGLPQKVIKHWFRNTLFKERQ [P2M] | 0.171 ± 0.19
35 | RLRTRITDDQLRVLRQYFDINNSPSEEQIKEMADKSGLPQKVIKHWFRNTLFKERQ [P2L] | 0.086 ± 0.096
36 | RERTRITDDQLRVLRQYFDINNSPSEEQIKEMADKSGLPQKVIKHWFRNTLFKERQ [P2E] | 0.184 ± 0.14
37 | RYRTRITDDQLRVLRQYFDINNSPSEEQIKEMADKSGLPQKVIKHWFRNTLFKERQ [P2Y] | -0.057 ± 0.18
38 | RQRTRITDDQLRVLRQYFDINNSPSEEQIKEMADKSGLPQKVIKHWFRNTLFKERQ [P2Q] | 0.215 ± 0.17
39 | RDRTRITDDQLRVLRQYFDINNSPSEEQIKEMADKSGLPQKVIKHWFRNTLFKERQ [P2D] | 0.38 ± 0.14
40 | RARTRITDDQLRVLRQYFDINNSPSEEQIKEMADKSGLPQKVIKHWFRNTLFKERQ [P2A] | -0.134 ± 0.1
41 | RVRTRITDDQLRVLRQYFDINNSPSEEQIKEMADKSGLPQKVIKHWFRNTLFKERQ [P2V] | 0.018 ± 0.09
42 | RGRTRITDDQLRVLRQYFDINNSPSEEQIKEMADKSGLPQKVIKHWFRNTLFKERQ [P2G] | -0.005 ± 0.084
43 | RHRTRITDDQLRVLRQYFDINNSPSEEQIKEMADKSGLPQKVIKHWFRNTLFKERQ [P2H] | 0.012 ± 0.15
44 | RTRTRITDDQLRVLRQYFDINNSPSEEQIKEMADKSGLPQKVIKHWFRNTLFKERQ [P2T] | 0.279 ± 0.11
45 | RNRTRITDDQLRVLRQYFDINNSPSEEQIKEMADKSGLPQKVIKHWFRNTLFKERQ [P2N] | 0.28 ± 0.22
46 | RIRTRITDDQLRVLRQYFDINNSPSEEQIKEMADKSGLPQKVIKHWFRNTLFKERQ [P2I] | 0.105 ± 0.15
47 | RRRTRITDDQLRVLRQYFDINNSPSEEQIKEMADKSGLPQKVIKHWFRNTLFKERQ [P2R] | 0.127 ± 0.091

Reference: the Human Domainome abundance scans (Beltran et al. 2025)
